Experimental data reported in doi:10.1101/2025.10.09.681077.

Key:
Assay in all cases: partitioning into condensates
[1] = molecular target: PLPPR3 intracellular domain (ICD), purification construct HA-M1-PLPPR3 ICD-His (UniProt Q7TPB0)
PLPPR3 ICDΔ399 = PLPPR3 ICDΔ399 (UniProt Q7TPB0)
[2] = molecular target: PLPPR3 ICDΔ345/Δ399 (double mutant) (UniProt Q7TPB0)
PLPPR3 ICDΔ345 = PLPPR3 ICDΔ345 (UniProt Q7TPB0)

partition coefficient of G-actin into condensates, k actin (Cin/Cout) [1]: 15.4 | partition coefficient of G-actin into condensates, k actin (Cin/Cout) (PLPPR3 ICDΔ399): 11.8 | partition coefficient of G-actin into condensates, k actin (Cin/Cout) [2]: 11.8 | partition coefficient of G-actin into condensates, k actin (Cin/Cout) (PLPPR3 ICDΔ345): 15.2
Substance: alpha-actin (from UniProt P68032 1-377) (natural protein)
